# Laboratory results published in the RNAGym collection of RNA variant scans (doi:10.1073/pnas.2313332121).
# B1: TPR t1 (parent)
# chain: GACCAAUCUGCCCUCAGAGCUCGAGAACAUCUUCGGAUGCAGAGGAGGCAGGCUUCGGUGGCGCGAUAGCGCCAACGUCCUCAACCUCCAAUGCAUCCCACCACAUGAUGAUGCCUGAAGAGCCUUGGUUUUUUG
# Variants of: B1
# Assay: polymerase ribozyme fitness, log enrichment relative to wild type (log ratio); higher = more active; in vitro selection for triplet polymerase activity
# How it was run: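 Fitness is a logarithmic measure of how a genotype enriched relative to the wild type, with replicate averages weighted by inverse variance. The logarithm uses base 2, and enrichment came from Illumina sequencing of input and output libraries. Those libraries were PCR-built, transcribed mutants of each subunit of a heterodimeric triplet polymerase ribozyme, passed through one triplicate in vitro selection round that included frozen incubation at −7 °C, gel excision of extended constructs and streptavidin-bead capture. Genotypes were kept only if they had ≥10 input reads and ≥1 read per output.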
row,Variant,polymerase ribozyme fitness (log ratio)
1,GACCCAUCUGCCCUCAGAGCUCGAGAACAUCUUCGGAUGCAGAGGAGGCAGGCUUCGGUGGCGCGAUAGCGCCAACGUCCUCGACCUCCAAUGCAUCCCACCACAAGAUGAUGCCUGAAGAGUCUUGGUUUUUUA [A5C A83G U106A C123U G135A],-1.09
2,GACCAAUGUGCCCGCAGAGCUCGAGAACAUCUUCGUAUGCAGAGGAGGCAGGCUUCGGUGGCGCGAUAGCGCCAACGUCUUCAACCUCCAAUGCAUCCCACCACAUGAUGAUGCCUGAAAAGCCUUGGUUUUUUG [C8G U14G G36U C80U G120A],1.03
3,GACCAAUCCGCCCUCAGAGCUCGAGAACAUCUUCGGAUGCAGAGGAGGCAGGCUUCGGUGGCGCGAUAGCGCCAACGUCCUCAACCUCCAAUGAAUCCCCCCACAUGAUGAUGCCUGAAGAGCCUUCGUUUUUUU [U9C C94A A100C G127C G135U],-3
4,GACCAAUCUGCCCUCAGAGCUCGAGAACAUCUUCGGAUGCAGAGGAGGCAGGCUUCGGUGGCGCGAUAGCGCUAACGUCGUCAACCUCCAAUGCAUCCCACCACAUGAUGAUGCCUGUAGAGCCUUGGUUUUUUG [C73U C80G A118U],-4.47
5,GACCAAUCUGCCCUCAGAGCUCGAGAACAUCAUCGGAUGCAGAAGAGGCAGGCUUCGGUGGCGCGAUAGCGCCAACGUCCUCAACCCCCAAUGCAUCCCACCACAUGAUGAUGCCUGAAGAGCCUUGGUUUUUUG [U32A G44A U87C],-5.32
6,GACCAAGCUGCCCUCAGAGCUCGAGAACAUCUUCGGAUGCAGAGGAGGCGGGCUUCGGUGGCGCGAUAGCGCCAACGUCCUCAACCUCCAAUGCAUCCCACCACAUGAUGAUGCCUGAAGAGCCUUGGUUUUUUG [U7G A50G],0.715
7,GACCAAUCUGCCCUCAGAGCGAGAGAUCAUCUUCGGAUGCAGAGGAGGCAGGCUUCGGUGGCGCGAUAGCGCCAACGUCCUCAACCUCCAAUGCUUCCCACCACAUGAUGAUGCCUGAAGAGACUUGGUUUUUUG [U21G C22A A27U A95U C123A],-5.39
8,GACCAAUCUGCCCUCAGAGCUCGAGAACAUCUUCGGGUGCAGAGGAGGCAGGCUUCGGUAGCGCGAUAGCGCCAACGUCCUCAACCUCCAAUGCAUCCCACCACAUGAUGAUGCCUGAAGAGCCUUAGUUUUUUG [A37G G60A G127A],-2
9,GACCUAUCUGCCCUCAGAGCUCGAGAACAUCUUCGGAUGCAGAGGAGGCAGGCUUCGGUGGCGCGAUAGCGCCAACGUCCUCAUCCUCCAAUGCAUUCCACCACAUGAUGAUGCCUGAAGAGCCUUGGUUUUUUG [A5U A84U C97U],-1.7
10,GACCAAUCUGCCCUCAGAGCUCGAGAACAUCUUCGGAUGCAGAGCAGGCAGGCUUCGGUGGCGCGAUAGCGCCAACGUCCUCAACCUCCAAUGCAUCCCAGCACAUGAUGAUGCCUGAAGAACCUUGGUUUUUUG [G45C C101G G122A],-3.08
11,GACCAAUCUCCCCUCAGAGCUCGAGAACAUCUUCGGAUGCAGAGGAGGCAGGCUUCGGUUGCGCGAUAGCGCCAACGUCCUCAACCUCCAAUGCAUCCCACCACAUGAUGAUGCCUGGAGAGCCUUGGUUUUUUG [G10C G60U A118G],-1.45
12,GACCAAUCUGCCCUCAGAGCUCGAGAACAUCUUCGGAUGCAGAGGAGGCAGGCUUCGGUGGCGUGAUAGCGCCAACGUCCUCAACCUCCAAUGCAUCCCACCACAUGAUCAUGCCUGAAGAGCCUUGGUUUUUUG [C64U G110C],-3.51
13,GACCAAUCUGCCCUCAGAGCUCGAGAACAUCUUCGGAUGCAGAGGAGGCAGGCUUCGGUGGCGCGAUAGCGCCAAAGUCCUCAACCUCCAAUGAAUCCCAACACAUGAUGAUGCCUGAAGAGCCUUGGUUUUUUG [C76A C94A C101A],-2.64
14,GACCAAUCUGCCCUCAGAGCUCGAGAACAUCUUCGGAUGCAUAGGAGGCAGGCUUCGGUGGCGCGAUAGCGCCAACGUCCUCAACCUCCAAUGCAUCCCACCACAUGAUGAUCCCUGAAGAGCCUUGGUUUUUUG [G42U G113C],-3.23
15,GACCAAUCUGCACUCAGUGCUCGAGAACAUCUUCGGAUGCAGAGGAGGCAGGCUUUGGUGGCGCGAUCGCGCCAACGUUCUCAACCUCCAAUGCAUCCCACCACAUGAUGAUGCUUGCAGAGCCUUGGUUCUUUG [C12A A18U C56U A68C C79U C115U A118C U131C],-6.43
16,GACCAAUCUGUCCUCAGAGCUCGAGAACAUCUUCGGAUGCACAGGAGGCAGGCUUCGGUGGCGUGAUAGCGCCAACGUCCUCAACCUCCAAUGUAUCCCACCACAUGAUGAUGCCUGAAGAGCCUUGGUUUUUUG [C11U G42C C64U C94U],-1.83
17,GACCAAUCUGCCCUCAGAGCUCGAGAACAUCUUCGGAUGCAGAGGAGGCAGGCUUCGGUGGCGCGAUAGCUCCAACCUCCUCAACCUCUAAUGCAUCCCACCACAUGAUGAUGCCUGAAGAGCCUUGCUUUUUUG [G71U G77C C89U G128C],-4.14
18,GACCAAUCUGCCCUCAGAGCUCGAGAACAUCUUCGGAUGCAGAGGAGGCAGGCUUCGGUGGCGGGAUAGCGCCAACGUCCUCAACCUCCAAUGCAUCCCACCACAUGAUGAUGCCUGAAGGGCCUUGGUUUUUUG [C64G A121G],-4.54
19,GACCAAUCUGCCCUCAGAGCUCGAGAACAUCUUCGGAUGCAGAGGAGGCAGGCUUCGGUGGCGCGAUGGCGCCAACGUCCUCAACCUCCAAUGAAUCCCACCACAUGAUGAUGCCUGAAGAGCCUUGGUUUUUUG [A68G C94A],-5.05
20,GACCAAUCUGCCCUCAGAGCUCGAGAACAUCUUCGGAUGCAGAGGAGGCAGGCUCCGGUGGCGCGAUAGCGCCAACGUCCUCAACCUCCGAUGGAUCCCACCACAUGAUCAUGCCAGAAGGGCCUUGGUUUUUUG [U55C A90G C94G G110C U116A A121G],-5.82
21,GACCAAUCUGCCCUCAGAGCUCGAGAACAUCUUCGGAUGCAGAGGAGGCAGGCUUCGGUGGCGCGAUAGCGCCAACGUCCUAAACCUCCAAUGCAUCCCACCACAUGAUCAUGCCUGAAGUGCCUUGGUUUUUUG [C82A G110C A121U],-3.02

row,Variant,polymerase ribozyme fitness (log ratio)
1,GACCAAUCUGCCCUCAGAGCUCGAGAACAUCUUCGGAUGCAGAGGAGGGAGGCUUCGGUGGCGCGAUAGCGCCAACGUCCUCAACCUCAAAUGCAUCCCACCACAUGAUGCUGCCUGCAGAGCCUUGGAUUUUGG [C49G C89A A111C A118C U129A U134G],-5.22
2,GACCAAUCUGCCCUCAGAGCUCGAGAACAUCUUCGGAUGCAUAGGAGGCAGGCUUCGGUGGCGCGAUAGCGACAACGUCCUCAACCUCCAAUGCACCCCACCACAUGAUGAUGCCUGAAGAGCCUUGGUUUUUUG [G42U C72A U96C],-1.5
3,GUCCAAUGUGCCCUUAGAGCUCGAGAACAUCUUCGGAUGCAGAGGAGGCAGGCUUCGGUGGCGUGAUAGCGCCAACGUCCUCAACCUCCAAUGCAUCCCACCACAUGAUGAUGCCUGAAGAGCCUUGGUUUUUUG [A2U C8G C15U C64U],-2.18
4,GACCAAUCUGCCCUCAGUGCUCGAGAACAUCUUCGGAUGCAGAGGAGGCAGGCUUCGGUGGCGCGAUAGCGCCAACGUCCUCAACCUCUAAUGCAUCCCACCACAUGAUGAUGCCUGAAGAGCCUUGGUUUUUUG [A18U C89U],-1.53
5,GACCAAUCGGCCCUCAGAGCUCGAGAACAUCUUCGGAUGCAGAGGAGGCAGGCUUCGGUGUCGCGAUAGCGCCAACGUCCUCAACCUCCAAUGCAUCCCACCACAUGAUGAUGCCUGAAGAGCCUUGGUUUUUUG [U9G G61U],0.804
6,GACCAAUCUGCCCUCAGAGCUAGAGAACGUCUUCGGAUGAAGAGGAGGCAGGCUUCGGUGGCUCGAUAGCGCCUACGUCCUCAACCUCCAAUACAUCCCACCACAUGAUGAUCCCUGAAUAGCCUUGGUUUUUUG [C22A A29G C40A G63U A74U G93A G113C G120U],-7.43
7,GACCAAUCUGCCCUCAGAGCUCGAGAACAUCUUCAGAUGCAGAGGAGGCAGGCUUCGGUGGCGCGAUAGCGCCAACGUCCUCAACCUCCAAUGCAUCCCACCACAUGAUGAUGCCUGAAGAGCCUUGGUUUAUUG [G35A U132A],-3.49
8,GACCCAUCUGCCCUCAGAGCUCGAGAACAUCUUCGGAUGCAGAGGAGGCAGGCUUCGGUGGCGCGAUAGCGUCAACGUCCUCAACCUCCAAUGCAUCCCACCACAUGAUGAUGCCUGAAGAGCCUUGGUUUUUUG [A5C C72U],-1.39
9,GACCAAUCUGCCCUCAGAGCUCGAGAACAUCUUCGGAUGCAGAGGAGGCCGGCUUCGGUGGCGCGAUAGCGCCAACGUCCUCAACCUCCAAAGCAUCCCACCACAUGAUGAUGCCUGAAGAGCCUUGGUUUUUUG [A50C U92A],-3.05
10,GACCAAUUUGCUCUCAGAGCUCGAGAACAUCUUCGGAUGCAGAGGAGGCAGGCUUCGGUGGCGCGAUAGCGCCAACGUCCUCAACCUCCAAUGCAUCCCACCACAUGAUGAUGCCUGAAGAGCCUUGGUUUUUUG [C8U C12U],0.659
11,GAUCAAUCUGCCCUCAGAGCUCGAGUACAUCUUCGGAUGCAGAGGAGACAGGCUUCGGUGGCGCGAUAGCGCCAACGUCCUCAACCUCCAAUGCAUCCCACCACAUGAUGAUGCCUGAAGAGCCUUGGUGUUUUG [C3U A26U G48A U130G],-5.25
12,GACCAAUCUGCCCUCAGAGCUAGAGAACAUCUUCGGAUGCAGAGGAGGCAGGCUUCGGUGGCGCGAUAGAGCCAACGUCCUCAACCUCCAAUGCAUCCCACCACAUGAUGAUGCCUGAAGAUCCUUGGUUUUUUG [C22A C70A G122U],-5.4
13,GACCAAUCUGCCCUCAGAGCUCGCGAACAUCUUCGGAUGCAGAGGAGGCAGGCUUCGGUGGCGCGAUAGCGCCAACGUCCUCAACCUCCAAUGCAUCCCACCACAUGAUGAUGCCUGAAGAGCCUUGGUUUUUUG [A24C],-6.63
14,GACCAAUCUGCCGUCAGAGCUCGAGAACAUCUUCGGAUGCAGAGGAGGCAGGCUUCGGUGGCGCGAUAGCGCCAACGUCCUCAACCUCCAAUGCAUCCCACCACAUGAUGAUGCCUGAGGAGCCUUGGUUUUUUG [C13G A119G],-0.865
15,GACCAAUCUGCCCUCAGAGCUCGAGAACAUCUUCGGAUGCAGAGGAGGCAGGCUUCGGUGGCGCGAUAUCGCCAACGUCCUCAACCUCCAAUGCAUCCCACCAUAUGAUGAUGCUUGAAGAGCCUUGGUUUUUUG [G69U C104U C115U],1.66
16,GCCCAAUCUGCCAUCAGAGCUCGAGAACAUCUUCGGAUGCAGAGGAGGCAGGCUUCGGUGGCGCGAUAGCGCCAACGUCCUCAACCUCCAAUGCAUCCCACCACAUGAUGAUGCCUGAAGAGCCUUGGUUUUUUG [A2C C13A],-2.71
17,GACCAGUCUGCCCUCAGAGCUCGAGAACAUCUUCGGAUUCAGAGGAGGCAGGCUUCGGUGGCGCGAUAUCGCCAACGUCCUCAACCUCCAAUGCAUCCCACCACAUGAUGAUGCCUGAUGAGCCUUGGUUUUUUG [A6G G39U G69U A119U],-0.0303
18,GACCAAUCUGCCCUCAGAGCUCGAGAACAUCUUCGGAUGCAGAGGAAGCAGGCUUCGGUGGCGCGAUAGCGCCAACGUCCUCAACAUCCAAUGCAUCCCACCACAUGAUGAUACCUGAAGAGCCUUGGUUUUUUG [G47A C86A G113A],-2.16
19,GACCAAUCUGCCCUCCGAGCUCGAGAACAUCUUCGGAUGCAGAGGAGGCAGGCUUCGGUGGUGCGAUAGCGCCAACGUCCUCCACCUGCAAUGCAUCCCACCACAUGAUGAUGCCUGAAGAGCCUUGGUUUUUUG [A16C C62U A83C C88G],-2.71
20,GUCCAAUCUUCCCUCAGAGCUCGAGAACAUCUUCGGAUGCAGAGAAGACAGGCUUCGGUGGCGCGAUAGCGCCAACGUCCUCAACCUCCAAUGCAUCCCACUACAUGAUGAUGUCUGAACAGUCUUGGUUUUUUG [A2U G10U G45A G48A C102U C114U G120C C123U],-4.53
21,GACCAAUCUGCCCUCAGAGCUCGAGAACAUCUUCGGAUGCAGAGGAGGGAGGCUUCGGUGGCGGGAUAGCGCCAACUUCCUCUACCUCCAAUGCAUCCCACCACAUGAUGAUGCCUGAAUAGCCUUGGUUUUUUG [C49G C64G G77U A83U G120U],-7.69
